Source: patent US20260199902A1, “SYSTEM AND APPARATUS FOR THE HAND-HELD AMPLIFICATION AND DETECTION OF NUCLEIC ACIDS” (Darwin Biosciences, Inc., priority 2022, published 2026)

B1: NEB RI, murine: murine RNase Inhibitor (M0314; New England BioLabs) (protein, UniProt Q91VI7 1-456, looked up)
Ribonuclease inhibitor: MSLDIQCEQLSDARWTELLPLIQQYEVVRLDDCGLTEVRCKDISSAVQANPALTELSLRTNELGDGGVGLVLQGLQNPTCKIQKLSLQNCGLTEAGCGILPGMLRSLSTLRELHLNDNPMGDAGLKLLCEGLQDPQCRLEKLQLEYCNLTATSCEPLASVLRVKADFKELVLSNNDLHEPGVRILCQGLKDSACQLESLKLENCGITAANCKDLCDVVASKASLQELDLSSNKLGNAGIAALCPGLLLPSCKLRTLWLWECDITAEGCKDLCRVLRAKQSLKELSLASNELKDEGARLLCESLLEPGCQLESLWIKTCSLTAASCPYFCSVLTKSRSLLELQMSSNPLGDEGVQELCKALSQPDTVLRELWLGDCDVTNSGCSSLANVLLANRSLRELDLSNNCMGGPGVLQLLESLKQPSCTLQQLVLYDIYWTNEVEEQLRALEEERPSLRIIS
B2: Proteinase K: listed under Protein RNase Inhibitors (protein, UniProt P06873 106-384, looked up)
Proteinase K: AAQTNAPWGLARISSTSPGTSTYYYDESAGQGSCVYVIDTGIEASHPEFEGRAQMVKTYYYSSRDGNGHGTHCAGTVGSRTYGVAKKTQLFGVKVLDDNGSGQYSTIIAGMDFVASDKNNRNCPKGVVASLSLGGGYSSSVNSAAARLQSSGVMVAVAAGNNNADARNYSPASEPSVCTVGASDRYDRRSSFSNYGSVLDIFGPGTSILSTWIGGSTRSISGTSMATPHVAGLAAYLMTLGKTTAASACRYIADTANKGDLSNIPFGTVNLLAYNNYQA

Key:
RNase activity in saliva = test: RNase Alert Assay on saliva samples; assay type: biochemical, human
Protocol: FIGS. 3A-D. Optimizing and measuring RNase inhibition by murine RNase Inhibitor (mRI). (A) Diagram of the RNase Alert assay. A quenched fluorescent ssRNA probe reports RNase activity when the quencher and fluorophore are physically separated by RNase degradation. Data is collected immediately after saliva is added to the assay and the RNase activity is calculated from a linear slope of the first 90 second of measurements. (B) RNase activity in five individual saliva samples with or without addition of 4 U/μl mRI. (C) RT-qPCR data for a panel of 12 biomarkers indicating the relative abundance of each biomarker at the indicated time after lysis. Each timepoint is from a pooled saliva sample run through a separate device. Delta Ct values were normalized to the 0 second timepoint. Horizontal bars are mean+/−standard deviation. (D) RNase activity in four saliva samples before and after rehydrating an amplification pad containing 4 U/μl of lyophilized mRI. Saliva in rehydrated pads went through a 20-minute RPA incubation at 39° C. prior to addition to the RNase Alert assay showing that RNase inhibition is long-lived. Ct=Cycle Threshold. […]
To confirm that lyophilized mRI in the amplification pad can rehydrate and inhibit saliva RNases, four amplification pads were rehydrated with saliva and the contents of the rehydrated pads were measured in the RNase Alert Assay (FIG. 3D).

RT-RPA reactions = test: RT-RPA interference (compatibility) testing of lysis and RNase inhibitor reagents, agarose gel; assay type: biochemical; set-up: key: Pass (green) indicates that reagents did not interfere with RT-RPA; Partial Pass: Partial pass (yellow) indicates that reagents had partial interference in RT-RPA; Fail (red) indicates reagents completely interfered with RT-RPA reactions; conditions: 4 U/μl final in RT-RPA reaction
Protocol: FIG. 28. Reagent interference testing in RT-RPA. Lysis and RNase inhibitor reagents tested in RT-RPA using cDNA and RNA templates. RT-RPA reactions were prepared with varying concentrations of reagents, as labeled above (final concentrations in a 20 μl RT-RPA reaction are reported). Amplification products were run on a 2% agarose gel and band intensities were compared to control (No added reagent) reactions. Reactions labeled in red contain no reverse transcriptase. The expected size of the CXCL8 amplicon is indicated to the left of the gel. GuHCI=Guanidine hydrochloride, Triton=Triton X-100.
Reagents under consideration for the device were tested for compatibility with RT-RPA at the concentrations expected to be required for lysis. To test for interference, lysis or RNase inhibitor reagents were spiked into RT-RPA reactions with purified cell line RNA or cDNA as a template. Reactions were analyzed by agarose gel for the presence or absence of amplified products. […]

saliva RNases = test: RNase activity assay: cell line RNA incubated with treated saliva, read on Agilent TapeStation; assay type: biochemical, human; set-up: key: Pass (green) indicating sufficient RNase inactivation; Partial Pass (yellow) indicating partial RNase inactivation; Fail (red) indicating incomplete RNase inactivation
Protocol: FIG. 27. Example of saliva RNase activity assays assayed on TapeStation High Sensitivity RNA ScreenTapes (5067; Agilent). Results from three independent assays are shown. Lanes 1-3 (left to right) are experimental controls including 500 μg RNA in RNase free water, untreated saliva without added cell line RNA, and untreated saliva incubated with cell line RNA. Lanes labeled “Incomplete RNase Inactivation” contain no ribosomal RNA bands, indicating RNase activity is present. Lanes labeled “Sufficient RNase Inactivation” contain sharp ribosomal bands (similar to RNA in water), indicating RNases have been inactivated. gDNA=genomic DNA.
To screen for chemical and protein-based reagents that inhibit saliva RNases, we developed an RNase activity assay in which purified cell line RNA was incubated for 30 min at 37° C. with saliva samples after treatment with potential reagents for RNase inhibition (FIG. 2.5.3). After incubation, RNA was purified and analyzed on an Agilent TapeStation. Sharpness of the eukaryotic ribosomal RNA bands (28S and 18S) were compared to determine RNase activity in the presence of various inhibitors. In addition, the Agilent TapeStation calculates an RNA Integrity Score (RIN) as a measure of RNA quality (RIN of 10-fully intact RNA, RIN of 1=fully degraded RNA), however contaminating nucleic acid (e.g., 16S and 23S rRNA from bacteria) interferes with this calculation.
To screen for chemical and protein-based reagents that inhibit saliva RNases, we developed an RNase activity assay in which purified cell line RNA was incubated for 30 min at 37° C. with saliva samples after treatment with potential reagents for RNase inhibition (FIG. 2.5.3). After incubation, RNA was purified and analyzed on an Agilent TapeStation. Sharpness of the eukaryotic ribosomal RNA bands (28S and 18S) were compared to determine RNase activity in the presence of various inhibitors. […]

Row | Molecule | RNase activity in saliva samples (RNase activity in saliva; 4 U/μL added, five donor saliva samples) | Inhibition of RNase activity (RNase activity in saliva; lyophilized in amplification pad, rehydrated with saliva, four pads) | Compatibility in RT-RPA, Result (RT-RPA reactions) | Inactivation of saliva RNases, Result (saliva RNases; 4 U/μl) | Inactivation of saliva RNases, Result (saliva RNases; 8 U/μl) | Inactivation of saliva RNases, Result (saliva RNases; 50 μg/ml and 2.5 mg/ml)
1 | B1 | reduced the RNase activity in all five samples to negligible amounts | Nearly complete inhibition of RNase activity | Pass | Partial | Pass | 
2 | B2 |  |  |  |  |  | Fail
